We go through one molecule from patent US20170095421A1 (published 2017).

One assay concerns the target GPIIbIIIa. The experiment in a line: SPR (Langmuir binding analysis).
Another assay addresses Peptide 2. The experiment in a line: SPR (Langmuir binding analysis); GPIIbIIIa mimotope.
A further assay deals with Peptide 1. The assay is described as above.

B1: Fibrinogen (ligand)
chain 1: ADSGEGDFLAEGGGVRGPRVVERHQSACKDSDWPFCSDEDWNYKCPSGCRMKGLIDEVNQDFTNRINKLKNSLFEYQKNNKDSHSLTTNIMEILRGDFSSANNRDNTYNRVSEDLRSRIEVLKRKVIEKVQHIQLLQKNVRAQLVDMKRLEVDIDIKIRSCRGSCSRALAREVDLKDYEDQQKQLEQVIAKDLLPSRDRQHLPLIKMKPVPDLVPGNFKSQLQKVPPEWKALTDMPQMRMELERPGGNEITRGGSTSYGTGSETESPRNPSSAGSWNSGSSGPGSTGNRNPGSSGTGGTATWKPGSSGPGSTGSWNSGSSGTGSTGNQNPGSPRPGSTGTWNPGSSERGSAGHWTSESSVSGSTGQWHSESGSFRPDSPGSGNARPNNPDWGTFEEVSGNVSPGTRREYHTEKLVTSKGDKELRTGKEKVTSGSTTTTRRSCSKTVTKTVIGPDGHKEVTKEVVTSEDGSDCPEAMDLGTLSGIGTLDGFRHRHPDEAAFFDTASTGKTFPGFFSPMLGEFVSETESRGSESGIFTNTKESSSHHPGIAEFPSRGKSSSYSKQFTSSTSYNRGDSTFESKSYKMADEAGSEADHEGTHSTKRGHAKSRPV
chain 2: QGVNDNEEGFFSARGHRPLDKKREEAPSLRPAPPPISGGGYRARPAKAAATQKKVERKAPDAGGCLHADPDLGVLCPTGCQLQEALLQQERPIRNSVDELNNNVEAVSQTSSSSFQYMYLLKDLWQKRQKQVKDNENVVNEYSSELEKHQLYIDETVNSNIPTNLRVLRSILENLRSKIQKLESDVSAQMEYCRTPCTVSCNIPVVSGKECEEIIRKGGETSEMYLIQPDSSVKPYRVYCDMNTENGGWTVIQNRQDGSVDFGRKWDPYKQGFGNVATNTDGKNYCGLPGEYWLGNDKISQLTRMGPTELLIEMEDWKGDKVKAHYGGFTVQNEANKYQISVNKYRGTAGNALMDGASQLMGENRTMTIHNGMFFSTYDRDNDGWLTSDPRKQCSKEDGGGWWYNRCHAANPNGRYYWGGQYTWDMAKHGTDDGVVWMNWKGSWYSMRKMSMKIRPFFPQQ
chain 3: YVATRDNCCILDERFGSYCPTTCGIADFLSTYQTKVDKDLQSLEDILHQVENKTSEVKQLIKAIQLTYNPDESSKPNMIDAATLKSRKMLEEIMKYEASILTHDSSIRYLQEIYNSNNQKIVNLKEKVAQLEAQCQEPCKDTVQIHDITGKDCQDIANKGAKQSGLYFIKPLKANQQFLVYCEIDGSGNGWTVFQKRLDGSVDFKKNWIQYKEGFGHLSPTGTTEFWLGNEKIHLISTQSAIPYALRVELEDWNGRTSTADYAMFKVGPEADKYRLTYAYFAGGDAGDAFDGFDFGDDPSDKFFTSHNGMQFSTWDNDNDKFEGNCAEQDGSGWWMNKCHAGHLNGVYYQGGTYSKASTPNGYDNGIIWATWKTRWYSMKKTTMKIIPFNRLTIGEGQQHHLGGAKQAGDV
Consider B1, for which the dissociation constant Kd – broadly, the free concentration of one partner at which half of the binding sites on the other are occupied at equilibrium, for simple one-to-one binding – in the assay with GPIIbIIIa came to 10.3 nM; with Peptide 2, 334 nM; in the assay with Peptide 1, 12500 nM.
